The results in this text go back to US20250197510A1 (published 2025).

The test deals with T1, FLT3 on Nalm16 cells (human, UniProt P36888 27-993).
T1 construct: whole, on cells; Also used for FLT3 on primary leukemic cells of patients in the functional rows; also called NALM16 (FLT3+); FLT3 on leukemic cells
T1 sequence (looked up): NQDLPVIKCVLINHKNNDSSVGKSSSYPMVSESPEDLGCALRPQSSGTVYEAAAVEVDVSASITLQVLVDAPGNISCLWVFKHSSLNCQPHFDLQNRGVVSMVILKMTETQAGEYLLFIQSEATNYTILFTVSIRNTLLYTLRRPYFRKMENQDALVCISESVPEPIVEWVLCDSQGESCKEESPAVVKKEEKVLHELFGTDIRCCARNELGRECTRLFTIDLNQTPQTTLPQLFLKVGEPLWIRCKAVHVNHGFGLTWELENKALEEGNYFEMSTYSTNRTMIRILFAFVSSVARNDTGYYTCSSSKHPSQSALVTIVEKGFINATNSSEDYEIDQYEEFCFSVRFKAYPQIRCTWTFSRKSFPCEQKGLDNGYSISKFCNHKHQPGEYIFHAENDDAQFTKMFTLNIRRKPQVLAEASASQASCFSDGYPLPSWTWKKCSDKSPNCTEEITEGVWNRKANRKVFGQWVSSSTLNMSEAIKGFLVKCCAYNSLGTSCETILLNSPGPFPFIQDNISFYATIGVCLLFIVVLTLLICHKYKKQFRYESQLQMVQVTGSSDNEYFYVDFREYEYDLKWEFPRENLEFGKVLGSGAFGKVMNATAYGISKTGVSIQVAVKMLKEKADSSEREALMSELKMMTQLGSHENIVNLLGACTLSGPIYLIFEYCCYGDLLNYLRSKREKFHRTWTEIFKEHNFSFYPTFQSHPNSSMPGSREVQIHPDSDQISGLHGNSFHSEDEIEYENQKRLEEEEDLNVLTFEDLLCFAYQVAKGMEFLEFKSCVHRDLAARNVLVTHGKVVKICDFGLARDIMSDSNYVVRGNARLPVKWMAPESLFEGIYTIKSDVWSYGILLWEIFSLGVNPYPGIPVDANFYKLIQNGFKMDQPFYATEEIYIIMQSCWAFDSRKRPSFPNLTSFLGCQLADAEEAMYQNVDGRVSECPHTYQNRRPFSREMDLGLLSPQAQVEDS
Put plainly: flow cytometry on NALM16 (FLT3+) cells, PE-conjugated anti human Fcγ secondary antibody. How it is done: In addition, antibody binding affinity was also tested using binding of the antibody to its target(s) as expressed on cells. Analyzed is the binding of CC-2 variants to Nalm16 cells expressing FLT3 (FIG. 4) or Jurkat cells expressing CD3 (FIG. 6). Variants V1 to V9 (with V6 being V6-V6) were produced after transient transfection of CHO cells using the insert sequences listed above. The antibodies were purified by protein A affinity-and size exclusion-chromatography. […] To measure antibody binding to FLT3 and CD3 NALM16 (FLT3+) and Jurkat (CD3+) cells were incubated with the respective variants for 30 min, washed, stained with a goat anti human Fcγ-specific and PE-conjugated secondary antibody (Jackson Immuno Research), washed again and analyzed by flow cytometry (FACSCalibur, BD Biosciences).
(In flow cytometry, cells or beads pass a laser one at a time.)

B1: V6-V6 (bispecific antibody, human IgG1, kappa)
heavy: QVQLQQPGAELVKPGASLKLSCKSSGYTFTSYWMHWVRQRPGHGLEWIGEIDPSDSYKDYNQKFKDKATLTVDRSSNTAYMHLSSLTSDDSAVYYCARAITTTPFDFWGQGTTLTVSSASTKGPSVFPLAPSSKSTSGGTAALGCLVKDYFPEPVTVSWNSGALTSGVHTFPAVLQSSGLYSLSSVVTVPSSSLGTQTYICNVNHKPSNTKVDKKVEPKSCDKTHTCPPCPAPPVAGPSVFLFPPKPKDTLMISRTPEVTCVVVGVSHEDPEVKFNWYVDGVEVHNAKTKPREEQYNSTYRVVSVLTVLHQDWLNGKEYKCKVSNKQLPSPIEKTISKAKGQPREPQVYTLPPSRDELTKNQVSLTCLVKGFYPSDIAVEWESNGQPENNYKTTPPVLDSDGSFFLYSKLTVDKSRWQQGNVFSCSVMHEALHNHYTQKSLSLSPGKSGDIQMTQSPSSLSASVGDRVTITCRASQDIRNYLNWYQQKPGKAPKLLIYYTSRLESGVPSRFSGSGSGTDYTLTISSLQPEDFATYYCQQGNTLPWTFGQGTKVEIKGGGGSGGGGSGGGGSEVQLVESGGGLVQPGGSLRLSCAASGYSFTGYTMNWVRQAPGKGLEWVALINPYKGVSTYNQKFKDRFTISVDKSKNTAYLQMNSLRAEDTAVYYCARSGYYGDSDWYFDVWGQGTLVTVSS
light: DIVLTQSPATLSVTPGDSVSLSCRASQSISNNLHWYQQKSHESPRLLIKYASQSISGIPSRFSGSGSGTDFTLSINSVETEDFGVYFCQQSNTWPYTFGGGTKLEIKRTVAAPSVFIFPPSDEQLKSGTASVVCLLNNFYPREAKVQWKVDNALQSGNSQESVTEQDSKDSTYSLSSTLTLSKADYEKHKVYACEVTHQGLSSPVTKSFNRGEC
notes: also called CC-2; FLT3 (4G8) x CD3 (humanized hUCHT1) bispecific IgGsc
As for B1, the EC50 (in general, the concentration that produces a half-maximal response) was roughly 1 nM.
